Residue numbers refer to the chain shown, from its start.
Key:
[1] = system: mARt877s; experiment: AR transactivation, transient transfection CAT reporter assay, mutant AR; format: cell-based, human; details: mARt877s, DHT 10^-11 to 10^-8 M
[2] = target: T1, mARe708k (Homo sapiens, UniProt P10275, E710K); experiment: as above; format: cell-based; details: mARe708k, DHT 10^-11 to 10^-8 M
T1 construct: expressed in transfected cells; host or cells: DU145
T1 sequence (P10275 1-920 E710K): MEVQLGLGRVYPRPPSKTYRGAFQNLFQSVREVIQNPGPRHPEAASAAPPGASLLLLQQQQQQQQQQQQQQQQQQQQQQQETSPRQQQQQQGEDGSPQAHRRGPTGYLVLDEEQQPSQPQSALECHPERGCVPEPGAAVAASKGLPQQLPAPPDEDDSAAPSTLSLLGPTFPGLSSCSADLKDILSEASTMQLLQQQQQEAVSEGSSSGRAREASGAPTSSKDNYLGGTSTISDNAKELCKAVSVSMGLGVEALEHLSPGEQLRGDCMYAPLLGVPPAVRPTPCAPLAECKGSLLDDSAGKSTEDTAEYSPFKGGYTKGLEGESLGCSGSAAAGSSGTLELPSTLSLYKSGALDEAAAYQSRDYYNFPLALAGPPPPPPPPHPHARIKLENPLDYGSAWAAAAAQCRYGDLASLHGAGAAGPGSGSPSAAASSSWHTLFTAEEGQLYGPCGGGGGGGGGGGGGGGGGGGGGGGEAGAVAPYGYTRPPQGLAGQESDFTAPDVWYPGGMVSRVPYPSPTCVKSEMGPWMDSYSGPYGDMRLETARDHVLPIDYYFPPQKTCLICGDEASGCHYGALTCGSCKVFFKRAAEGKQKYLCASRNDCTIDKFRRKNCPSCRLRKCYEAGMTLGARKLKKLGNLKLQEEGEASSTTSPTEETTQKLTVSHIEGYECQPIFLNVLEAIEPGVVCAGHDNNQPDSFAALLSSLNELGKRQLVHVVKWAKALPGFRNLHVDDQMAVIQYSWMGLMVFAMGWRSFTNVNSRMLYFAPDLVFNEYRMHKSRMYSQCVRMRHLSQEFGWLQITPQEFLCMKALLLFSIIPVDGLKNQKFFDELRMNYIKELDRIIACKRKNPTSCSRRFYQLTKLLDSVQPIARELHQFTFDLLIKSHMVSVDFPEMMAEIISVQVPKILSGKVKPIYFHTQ

[3] = target: T2, estrogen receptor (ER) (Homo sapiens, UniProt P03372); experiment: Steroid receptor transactivation, ERE-CAT reporter in DU145 cells; format: cell-based; details: DU145
T2 construct: expressed in transfected cells; host or cells: DU145
T2 sequence (P03372 1-595): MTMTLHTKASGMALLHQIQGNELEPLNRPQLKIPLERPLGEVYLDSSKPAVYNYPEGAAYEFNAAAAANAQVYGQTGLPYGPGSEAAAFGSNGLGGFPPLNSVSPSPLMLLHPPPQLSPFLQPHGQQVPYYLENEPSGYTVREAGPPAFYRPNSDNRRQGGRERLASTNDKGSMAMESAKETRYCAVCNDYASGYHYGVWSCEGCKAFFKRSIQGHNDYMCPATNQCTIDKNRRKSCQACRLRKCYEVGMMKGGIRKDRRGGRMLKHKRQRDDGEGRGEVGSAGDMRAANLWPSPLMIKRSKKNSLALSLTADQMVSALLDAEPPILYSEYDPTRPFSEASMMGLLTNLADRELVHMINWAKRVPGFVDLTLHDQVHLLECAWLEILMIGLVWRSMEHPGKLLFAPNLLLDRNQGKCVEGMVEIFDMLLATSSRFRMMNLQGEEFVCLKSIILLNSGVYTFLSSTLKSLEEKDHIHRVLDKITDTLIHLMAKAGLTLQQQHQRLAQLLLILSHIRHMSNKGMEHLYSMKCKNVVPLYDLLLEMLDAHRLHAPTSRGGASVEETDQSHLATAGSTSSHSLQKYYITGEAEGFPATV

[4] = target: T3, AR (Homo sapiens, UniProt P10275); experiment: AR transcriptional activity (MMTV-CAT) in PC3 cells
T3 sequence (P10275 1-920): T1 sequence (P10275 1-920 E710K) with K710E

[5] = target: T4, wtAR (Homo sapiens, UniProt P10275); experiment: AR transactivation, transient transfection with MMTV-CAT reporter in DU145 cells
T4 sequence (P10275 1-920): T1 sequence (P10275 1-920 E710K) with K710E

enhancement of transactivation by ARA55 [2]: 4–8 fold
effect of ARA55 on ER transcriptional activation [3]: marginal effect
increase of AR transcriptional activity on transfection with exogenous ARA55 [4]: 4 fold
AR transcriptional activity induction with ARA55 cotransfected ([5]; 10 nM DHT plus ARA55, DU145): 22.8 fold
further increase of the DHT induction of AR transcriptional activity by ARA55 ([5]; 10 nM DHT, dose-dependent, plateau at AR:ARA55 1:4.5, DU145): 5.3 fold
enhancement of transactivation by ARA55 ([5]; wtAR, DHT 10^-11 to 10^-8 M): 4–8 fold
B1: ARA55: androgen receptor coactivator, 444 aa, SEQ ID NO:4, 91% homology with mouse hic5 (protein)
chain: MPRSGAPKERPAEPLTPPPSYGHQPTGQSGESSGASGDKDHLYSTVCKPRSPKPAAPAAPPFSSSSGVLGTGLCELDRLLQELNATQFNITDEIMSQFPSSKVASGEQKEDQSEDKKRPSLPSSPSPGLPKASATSATLELDRLMASLPDFRVQNHLPASGPTQPPVVSSTNEGSPSPPEPTAKGSLDTMLGLLQSDLSRRGVPTQAKGLCGSCNKPIAGQVVTALGRAWHPEHFVCGGCSTALGGSSFFEKDGAPFCPECYFERFSPRCGFCNQPIRHKMVTALGTHWHPEHFCCVSCGEPFGDEGFHEREGRPYCRRDFLQLFAPRCQGCQGPILDNYISALSLLWHPDCFVCRECFAPFSGGSFFEHEGRPLCENHFHARRGSLCPTCGLPVTGRCVSALGRRFHPDHFACTFCLRPLTKGSFQERAGKPYCQPCFLKLFG
modifications: Homo sapien
enhancement of transactivation by ARA55 [1]: 4–8 fold

Source: patent publication US7052908B2, “Androgen receptor coactivators” (University of Rochester, priority 1998, dated 2006)
